Assays:
[1] = molecular target: T1, complex of HEL peptide and MHC class II molecule (I-A^k) on LK35.2 cells (Mus musculus, UniProt P01910+P06343); assay: Immunization of mice with HEL peptides; serum IgG1 binding to HEL peptide-pulsed LK35.2 cells (flow cytometry); format: in vivo, mice (B10.A strain); details: 30 nmol peptide with CFA subcutaneously; serum two weeks after administration
T1 construct: LK35.2 cells expressing I-A^k (the MHC class II molecule); endogenous in cells; host or cells: LK35.2 cells
T1 sequence (P01910 24-256): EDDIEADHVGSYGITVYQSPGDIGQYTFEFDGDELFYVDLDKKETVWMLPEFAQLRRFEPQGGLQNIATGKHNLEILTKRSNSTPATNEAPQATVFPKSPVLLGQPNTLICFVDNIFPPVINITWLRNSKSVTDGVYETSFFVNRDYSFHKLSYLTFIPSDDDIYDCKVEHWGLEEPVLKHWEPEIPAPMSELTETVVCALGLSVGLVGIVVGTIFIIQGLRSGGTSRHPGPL
T1 sequence (P06343 28-263): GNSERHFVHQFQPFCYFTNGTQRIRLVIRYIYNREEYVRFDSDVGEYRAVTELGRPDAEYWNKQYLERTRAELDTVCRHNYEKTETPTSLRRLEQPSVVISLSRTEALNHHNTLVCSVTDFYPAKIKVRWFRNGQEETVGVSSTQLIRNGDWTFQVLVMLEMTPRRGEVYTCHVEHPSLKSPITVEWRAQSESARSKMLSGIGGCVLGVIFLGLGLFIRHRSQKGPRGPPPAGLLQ
Experimental: 30 nmol of the HEL peptide 41-70 or the HEL peptide 48-61 was mixed with a complete Freund's adjuvant. Each of the thus-obtained mixture was administered subcutaneously to mice (B10.A strain). Two weeks after the administration, whole blood was collected from each mouse, and serum was collected from the whole blood.
LK35.2 cells were pulsed with the HEL peptide in the same manner as in the item (2) in Example 1B, except that the HEL peptide 41-70 or the HEL peptide 48-61 was added instead of the HEL protein, the HEL peptide 41-70, and the HEL peptide 48-61. The cultured LK35.2 cells were collected from the wells. Thereafter, the collected LK35.2 cells were used in antibody detection to be described below.
Flow cytometry analysis was performed in the same manner as in the item (3) in Example 1A, except that the LK35.2 cells in the item (2) in Example 2A were used instead of the 293 T cells and that an Alexa®647-labeled anti-mouse IgG1 antibody (catalog number: A21240, Invitrogen) was used instead of the APC-labeled anti-mouse IgG (H+L) antibody (peptide added groups). As Control 1, the flow cytometry analysis was performed in the same manner, except that serums collected from non-immunized mice were used instead of the serums of the HEL peptide-immunized mice. As Control 2, the flow cytometry analysis was performed in the same manner, except that the HEL peptide was not added (peptide non-added groups).

[2] = molecular target: T2, 3A9 TCR / complex of HEL antigen and I-A^k on LK35.2 cells (Mus musculus, UniProt P01910+P06343); assay: Inhibition of TCR recognition by antibody: binding of soluble single-chain 3A9 TCR to antigen-pulsed LK35.2 cells after reaction with serum; details: cells reacted with serums of HEL-immunized mice, diluted 10-fold
T2 construct: LK35.2 cells expressing I-A^k (the MHC class II molecule); endogenous in cells; host or cells: LK35.2 cells (I-A^k); the 3A9 scTCR-Fc is culture supernatant of transfected 293T cells
T2 sequence (P01910 24-256): as the sequence (P01910 24-256) above
T2 sequence (P06343 28-263): as the sequence (P06343 28-263) above
Excerpt: From 3A9 T cell hybridomas (obtained from Laboratory of Vaccine Materials, National Institutes of Biomedical Innovation) expressing a TCR that recognizes a complex of a peptide consisting of the amino acid sequence of SEQ ID NO: 1 (the T-cell epitope) and I-A^k (the MHC class II molecule), the TCR was cloned. Specifically, from cDNA derived from the 3A9 T cell hybridomas, a polynucleotide encoding the following α-chain and β-chain of 3A9 TCR linked by a GGGGS linker was cloned into a pME18S vector. Thus, a 3A9 TCR expression vector was produced. The vector was designed so that the Fc domain of human IgG is added to the C terminus of an expressed protein. Thus, by introducing the expression vector to a host, a soluble single-chain TCR composed of 3A9 TCR and Fc bound thereto is expressed (3A9 scTCR-Fc).
Next, the 293 T cells were cultured for 96 hours under the same 30 culture conditions as in the item (1) in Example 1A, except that the 3A9 TCR expression vector was introduced instead of the I-A^k c expression vector and the I-A^k f expression vector. After the culture, the supernatant was collected, and the collected supernatant was used as the soluble single-chain TCR.
LK35.2 cells expressing I-A^k (the MHC class II molecule) were seeded in a 24-well plate at a density of 1×10^5 cells/1 ml/well. Next, the HEL protein was added to the wells at a concentration of 200 μg/ml, or the HEL peptide 41-70 or the HEL peptide 48-61 was added to the wells at a concentration of 20 μmol/l. The LK35.2 cells were pulsed with the HEL protein or the HEL peptide by culturing the HEL protein-added group for another 48 hours and the HEL peptide added groups for another 24 hours under the above-described culture conditions. The cultured LK35.2 cells were collected from the wells. Thereafter, the collected LK35.2 cells were used in inhibition of TCR recognition by an antibody to be described below.
Serum collected from each of the HEL protein-immunized mice was diluted 10-fold with HBSS to obtain a diluted serum. Next, 10 μl of the diluted serum was added to the LK35.2 cells obtained in the above item (2) to cause a reaction. Further, a dimer of 20 μl of the supernatant obtained in the above item (1) and 10 μl of an APC-labeled anti-human IgG Fc antibody (code number: 109-136-098, Jackson ImmunoResearch) diluted 100-fold was formed beforehand, and the LK35.2 cells after the reaction were reacted with the dimer. Then, the LK35.2 cells were analyzed by flow cytometry. As Control 1, the flow cytometry analysis was performed in the same manner, except that serums collected from non-immunized mice were used instead of the serums of the HEL protein-immunized mice. […]

Sequence: DGSTDYGILQINSR (Gallus gallus domesticus) [HEL peptide 48-61, reference compound]
- IgG1 binding of serum of peptide-immunized mice to LK35.2 cells pulsed with HEL peptide 41-70 [1]: not observed
- IgG1 binding of serum of peptide-immunized mice to LK35.2 cells pulsed with HEL peptide 48-61 [1]: not observed
- binding of soluble single-chain TCR to LK35.2 cells pulsed with the antigen [2]: observed

Sequence: QATNRNTDGSTDYGILQINSRWWCNDGRTP (Gallus gallus domesticus) [HEL peptide 41-70]
- IgG1 binding of serum of peptide-immunized mice to LK35.2 cells pulsed with HEL peptide 41-70 [1]: observed
- IgG1 binding of serum of peptide-immunized mice to LK35.2 cells pulsed with HEL peptide 48-61 [1]: not observed
- binding of soluble single-chain TCR to LK35.2 cells pulsed with the antigen [2]: not observed
